Experimental data as given in patent US20210244857A1, “PEPTIDE-COATED CALCIUM PHOSPHATE PARTICLES” (Cerapedics, Inc., priority 2016, published 2021).
Ends that are not written are not given here.

Columns and labels:
[1] = P-15 bound on final washed ABM particles, effect of pretreatment and freezing/drying technique; assay type: physicochemical
Experimental: Step 1: PRETREATMENT—ABM is pretreated in a Hypertonic (˜460 mM NaCl) HEPES buffer, pH 7.2, at a 10:1 ratio (ml solution to g ABM) for 24 hours. This solution is decanted off after 24 hours. This wash is repeated with fresh solution for 1 hour or until there is no pH change upon exposure to fresh solution. The final wash solution is decanted and the ABM is vacuum dried. The pretreatment step is performed with agitation of some kind (roller, rotation, etc.).
Step 2: COATING—A P-15 coating buffer (concentration depends on final desired P-15 coated on ABM) is made using hypertonic HEPES, pH 7.2. Pretreated ABM is coated using a 2:1 ratio (mL solution to g ABM) for 24 hours. This step is performed statically, with no agitation.
Step 3: WASHING—After the 24 hour coating step, the solution is removed by a rapid vacuum filtration process. The coated ABM is washed 6-12 times in a 10:1 ratio of solution to ABM using hypertonic HEPES buffer, pH 7.2. Vacuum filtration is performed between each wash to remove the solution. After the final wash, the washed ABM is then vacuum dried overnight.
ABM particles are produced as described in step 1 of Example 1, where step 1 further includes freezing and then drying the ABM particles subjected to hypertonic buffer.
Paired samples of pretreated ABM particles were freeze-dried (F/D) by two different methods, and a third sample was simply air dried (without any freezing). One sample was placed on a controlled ambient temperature F/D shelf and a vacuum was immediately pulled to initiate rapid evaporative freezing (FD-EC). The second sample was placed on an ambient F/D shelf and slowly frozen by ramped freezing (˜1-2° C. per minute). Once the sample was frozen the vacuum was initiated; this process is considered standard freeze-drying. The F/D process was used for both (a) the pretreatment step 1 and the washing (post-coating) step 3. The third samples was not frozen; the water was removed from the sample by air-drying at both drying steps. The following table indicates the amount of bound P15 on the final washed product. Table 4 indicates the amount of bound P-15 on the final washed ABM particles.
Paired samples of pretreated ABM particles were F/D by two different methods. One sample was placed on a controlled ambient temperature F/D shelf and a vacuum was immediately pulled to initiate rapid evaporative freezing. The second sample was placed on an uncooled shelf and a vacuum was immediately pulled to initiate evaporative cooling (vacuum oven drying). It should be noted that the rate of cooling is slower for this process due to the shelf temperature and the strength of vacuum. The F/D process was used for both (a) the pretreatment step 1 and the washing (post-coating) step 3. Table 5 indicates the amount of bound P-15 on the final washed ABM particles.
Four paired samples of pretreated ABM particles were F/D by two methods, alternately performed at the two separate drying steps. Two samples were F/D by vacuum oven drying after the pretreatment step and then dried by either the vacuum oven drying process or by FD-EC (placed on a controlled ambient temperature F/D shelf and a vacuum was immediately pulled to initiate rapid evaporative freezing) method after the P-15 coating step. The other two samples were dried by FD-EC after the pretreatment step and then dried by either the vacuum oven drying process or by FD-EC method after the P-15 coating Table 6 table indicates the amount of bound P-15 on the final washed ABM particles.
Paired samples of pretreated ABM particles were F/D by two different methods. One sample was rapidly frozen using a blast-freezer. The frozen sample was placed on a cold F/D shelf and a vacuum was immediately pulled. The second samples was placed on an uncooled shelf and a vacuum was immediately pulled to initiate evaporative cooling. The F/D process was used for both (a) the pretreatment step 1 and the washing (post-coating) step 3. […]

[2] = P-15 bound to ABM particles after pretreatment, coating and washing (ELISA), effect of osmolarity; assay type: physicochemical, Bovine; details: Hepes buffer pH 7.2
Experimental: (§1) ABM particles were incubated in a buffered solution that contained varying amounts of NaCl to modulate the final osmolarity. The ABM particles were incubated in the solutions for 18-24 hours, rinsed a second time in the same buffer, and dried. The pre-treated surface modified ABM particles were then incubated with P-15 dissolved in the same buffer as used during the pre-treatment step to coat the particles with P-15 peptide. Following the P-15 coating step, the ABM particles were washed repeatedly with the corresponding buffer solution. The amount of bound P-15 was determined using an ELISA test method. The different runs represent different preparations of the same ABM source.

[3] = as above; assay type: physicochemical; details: Hepes buffer pH 7.2, Porcine Cancellous Run #1
Experimental: as §1

## GTPGPQGIAGQRGVV [P-15, cell adhesion (collagen mimetic) peptide coated onto ABM particles]
[1]; Table 4, Air drying at both drying steps, no freezing
  P-15 ng/g ABM: 74 ng/g ABM
[1]; Table 4, Rapid freeze in freeze-dryer at pretreatment and post-coating steps
  P-15 ng/g ABM: 1521 ng/g ABM
[1]; Table 4, Slow freeze in freeze-dryer at pretreatment and post-coating steps
  P-15 ng/g ABM: 366 ng/g ABM
[1]; Table 5, Intermediate freeze in vacuum oven
  P-15 ng/g ABM: 308 ng/g ABM
[1]; Table 5, Rapid freeze in freeze-dryer
  P-15 ng/g ABM: 4201 ng/g ABM
[1]; Table 6, Pretreatment Step FD-EC, P-15 Coating Step FD-EC
  P-15 ng/g ABM: 351 ng/g ABM
[1]; Table 6, Pretreatment Step FD-EC, P-15 Coating Step Vacuum oven
  P-15 ng/g ABM: 261 ng/g ABM
[1]; Table 6, Pretreatment Step Vacuum oven, P-15 Coating Step FD-EC
  P-15 ng/g ABM: 77 ng/g ABM
[1]; Table 6, Pretreatment Step Vacuum oven, P-15 Coating Step Vacuum oven
  P-15 ng/g ABM: 72 ng/g ABM
[1]; Table 7, Blast-freeze followed by standard freeze-dryer
  P-15 ng/g ABM: 260 ng/g ABM
[1]; Table 7, Intermediate freeze in vacuum oven
  P-15 ng/g ABM: 80 ng/g ABM
[2]; Hypertonic Solution (2.7%saline), Bovine Cancellous Run #1
  P-15 Concentration Bound to ABM Particles: 149 ng-P-15/g-ABM
[2]; Hypertonic Solution (2.7%saline), Bovine Cancellous Run #2
  P-15 Concentration Bound to ABM Particles: 1024 ng-P-15/g-ABM
[2]; Hypertonic Solution (2.7%saline), Bovine Cortical Run #1
  P-15 Concentration Bound to ABM Particles: 153 ng ng-P-15/g-ABM
[2]; Hypertonic Solution (2.7%saline), Bovine Cortical Run #2
  P-15 Concentration Bound to ABM Particles: 105 ng-P-15/g-ABM
[2]; Hypotonic Solution (0% saline), Bovine Cancellous Run #1
  P-15 Concentration Bound to ABM Particles: 68 ng-P-15/g-ABM
[2]; Hypotonic Solution (0% saline), Bovine Cancellous Run #2
  P-15 Concentration Bound to ABM Particles: 651 ng-P-15/g-ABM
[2]; Hypotonic Solution (0% saline), Bovine Cortical Run #1
  P-15 Concentration Bound to ABM Particles: 105 ng ng-P-15/g-ABM
[2]; Hypotonic Solution (0% saline), Bovine Cortical Run #2
  P-15 Concentration Bound to ABM Particles: 64 ng-P-15/g-ABM
[2]; Isotonic Solution (0.9% saline), Bovine Cancellous Run #1
  P-15 Concentration Bound to ABM Particles: 129 ng-P-15/g-ABM
[2]; Isotonic Solution (0.9% saline), Bovine Cancellous Run #2
  P-15 Concentration Bound to ABM Particles: 611 ng-P-15/g-ABM
[2]; Isotonic Solution (0.9% saline), Bovine Cortical Run #1
  P-15 Concentration Bound to ABM Particles: 116 ng ng-P-15/g-ABM
[2]; Isotonic Solution (0.9% saline), Bovine Cortical Run #2
  P-15 Concentration Bound to ABM Particles: 66 ng-P-15/g-ABM
[3]; Hypertonic Solution (2.7%saline)
  P-15 Concentration Bound to ABM Particles: 376 ng ng-P-15/g-ABM
[3]; Hypotonic Solution (0% saline)
  P-15 Concentration Bound to ABM Particles: 231 ng ng-P-15/g-ABM
[3]; Isotonic Solution (0.9% saline)
  P-15 Concentration Bound to ABM Particles: 283 ng ng-P-15/g-ABM
